The values that follow come from the RNAGym collection of RNA variant scans (doi:10.7554/elife.80360).

B1: CPEB3 Ribozyme (parent)
chain: GGGGGCCACAGCAGAAGCGUUCACGUCGCGGCCCCUGUCAGAUUCUGGUGAAUCUGCGAAUUCUGCUGU

In this data set the parent is B1. As to the kind of experiment: self-cleavage, relative activity (ratio to wild type); higher = more cleavage; co-transcriptional.
With C27U A59U, the self-cleavage worked out at 0.212.
In the case of C27U A59C it was 0.127.
As for C27U A59G, the figure is 0.246; as for C27G U38G, 0.255; as for G28U C39U, 0.171.
As to C29G G50C, the self-cleavage came out at 0.457.
In the case of G28C C45A it was 0.135.
In the case of G28C C45U it was 0.194.
As for C27G U43G, the figure is 0.154; as for C27G U43A, 0.133.
In the case of G28C C35G, the self-cleavage was determined as 0.17.
For the variant C27G U36G, the self-cleavage is 0.14.
As for C27G U36C, the figure is 0.168; as for C29U A42G, 0.246.
In the case of C29U A42C it was 0.229.
In the case of C29G U67G it was 0.482; in that of C29G U67C, 0.47; in that of C29G U67A, 0.517.
As to C27U U38G, the self-cleavage is 0.17.
As for C29A G37A, the figure is 0.207.
As for G28U U53C, the figure is 0.157; as for C29G A51C, 0.484.
As to C29G A51G, the self-cleavage was found to be 0.541.
In the case of C29G A51U it was 0.439; in that of C29A C54U, 0.682.
In the case of C29A C54G it was 0.299.
As for G28A U61G, the figure is 0.214; as for G28C G48C, 0.135; as for G28U C33U, 0.155.
Take C29A U46C: the self-cleavage stood at 0.68.
In the case of C29A U46A it was 0.845.
As for C29A C39A, the self-cleavage was 0.327.
For C27G G58A, the self-cleavage is 0.16.
For the variant C29A U36G, the self-cleavage stood at 0.179.
As for C27G U69G, the figure is 0.29; as for C27A G68U, 0.811; as for C27A G68C, 0.765.
As for C27A U53G, the figure is 0.338; as for G28C G58U, 0.187; as for G28C G58A, 0.156.
As for C27G U61C, the figure is 0.169; as for C27G U61G, 0.172; as for G28A U55G, 0.167.
Take G28A U55A: the self-cleavage came to 0.169.
In the case of C29U C33U it was 0.511; in that of G28C U62G, 0.209; in that of C27A U49A, 0.763.
In the case of C29A U61G it was 0.613; in that of C29A U61C, 0.374.
As for C27A U38G, the figure is 0.141; as for C27G C33U, 0.188; as for C27G C33A, 0.29.
With C27G C66G, the self-cleavage is 0.119.
As for C29G C32U, the figure is 0.313; as for G28A G47A, 0.22; as for G28U, 0.178.
Regarding G28A, the self-cleavage amounted to 0.213.
As to G28C, the self-cleavage amounted to 0.173.
As for C29G G31C, the figure is 0.13; as for G28A A59G, 0.17; as for G28A A59C, 0.185.
As for G28C C34A, the figure is 0.127; as for C29G U49C, 0.544.
Turning to C29U C39G, the self-cleavage is 0.163.
As for G28U A59C, the figure is 0.251.
As for C27G C29U, the figure is 0.121; as for C27G C29A, 0.186; as for C29U A60C, 0.223.
In the case of G28A A40C, the self-cleavage is 0.15.
G28A U49A: the self-cleavage stood at 0.181.
C29U A51U: the self-cleavage is 0.432.
As for C29U A51C, the figure is 0.356.
Turning to C27U U62C, the self-cleavage is 0.189.
In the case of C27U U62G it was 0.276; in that of C27U U67G, 0.4; in that of G28C G68C, 0.147.
For the variant G28A G50C, the self-cleavage is 0.226.
In the case of C27U A42U it was 0.167; in that of C29G G41C, 0.173; in that of C29G G41U, 0.21.
As for C27G U44A, the figure is 0.212; as for C27G U44C, 0.145.
In the case of C27G G56A it was 0.178; in that of C27G G56U, 0.156; in that of C29G C54U, 0.545.
On to C29G C54G, for which the self-cleavage amounted to 0.246.
In the case of G28A U38A it was 0.176; in that of G28U G50U, 0.165; in that of C27A U36A, 0.207.
Consider C27G G68A, for which the self-cleavage was 0.228.
In the case of G28A G65U it was 0.172; in that of G28A G65A, 0.152.
As for C29A C63U, the figure is 0.465; as for G28A A51G, 0.229; as for C29G U36C, 0.286.
As for G28U U69A, the figure is 0.183; as for G28U U69C, 0.235; as for G28A G48U, 0.19.
G28A G48A: the self-cleavage came to 0.19.
As for G28A G48C, the figure is 0.213.
In the case of G28A U64C it was 0.151; in that of G28A U64G, 0.205; in that of C29G G68U, 0.8.
In the case of C29A U62G it was 0.269; in that of C27U G50C, 0.272; in that of C27G G41C, 0.176.
With G28C C33G, the self-cleavage worked out at 0.166.
C27U C39U: the self-cleavage is 0.254.
Regarding G28C C63G, the self-cleavage worked out at 0.198.
On to G28C C63A, for which the self-cleavage came to 0.186.
In the case of G28U U64C it was 0.219; in that of C27U U69A, 0.502; in that of C29G C66G, 0.369.
As for C29G C39U, the figure is 0.251.
As to C29G C39G, the self-cleavage amounted to 0.267.
As for G28A G31A, the figure is 0.153; as for G28A G31U, 0.197.
In the case of G28U U55G it was 0.168; in that of G28U C54U, 0.178; in that of C27U U49A, 0.442.
As for C27U U49C, the figure is 0.301.
Take G28C C39U: the self-cleavage came to 0.207.
As for G28C C39A, the figure is 0.156; as for C29G U44G, 0.361; as for G28U G58U, 0.182.
As for C29A C35A, the figure is 0.157; as for C29A C66A, 0.334.
As for C27G A40G, the figure is 0.243; as for C27G A40U, 0.17; as for C27G G28A, 0.147.
Regarding C27U G68C, the self-cleavage stood at 0.385.
In the case of C29A G56U it was 0.367; in that of C29A G56C, 0.297.
In the case of C29A G56A it was 0.492.
In the case of G28A U62G it was 0.208; in that of C29A G47A, 0.796; in that of G28C G65U, 0.16.
On to G28C A42C, for which the self-cleavage came out at 0.183.
As for G28C A42G, the figure is 0.128; as for C27A U64C, 0.343; as for G28U G48U, 0.198.
In the case of G28U G48C it was 0.169.
In the case of C29G U46C it was 0.473; in that of G28C G50C, 0.168; in that of G28C G50A, 0.166.
For G28C G50U, the self-cleavage turned out to be 0.143.
Consider C27G C57U, for which the self-cleavage came out at 0.189.
In the case of C29A G58C it was 0.685.
As for C29A G58U, the figure is 0.795.
As for C27G A42U, the figure is 0.136; as for G28A U53A, 0.198; as for C29G C33U, 0.558.
On to C27G C39A, for which the self-cleavage worked out at 0.166.
Consider C27G C39G, for which the self-cleavage was determined as 0.263.
As for C27U C45A, the figure is 0.216; as for C27U C45U, 0.35.
As for G28U A40U, the figure is 0.213; as for C29A U44C, 0.515.
In the case of C29A U44G, the self-cleavage stood at 0.521.
In the case of C29G C63G it was 0.183.
As for G28C U69C, the figure is 0.276; as for G28C U69G, 0.301; as for C29G U43A, 0.186.
In the case of C29G U43C it was 0.428; in that of C29U C32A, 0.295.
On to C27U C29G, for which the self-cleavage turned out to be 0.114.
As for C27U C29U, the figure is 0.189.
